# Measurements: patent publication US20260028403A1 (Zymeworks, published 2026)
# Substitutions are numbered along the chain they refer to. In names and notes the source's numbering stands.
# B1: v34891 (parental huTN228 OAA) (antibody, V domains shown)
# VH: QVQLQESGPGLVKPSETLSLTCAVSGFSLTSYGVHWIRQPPGKGLEWLGVIWPGGGTNFNSALMSRLTISEDTSKNQVSLKLSSVTAADTAVYYCARDRAYGNYLYAMDYWGQGTLVTVSS
# VL: DIQMTQSPSSLSASVGDRVTITCRASESVEYYVTSLMQWYQQKPGKAPKLLIYAASNVDSGVPSRFSGSGSGTDFTLTISSLQPEDIATYYCQQSRKVPFTFGGGTKVEIK
# notes: one-arm Fab antibody (OAA) format; also called huTN228 parental one-arm Fab antibody
# B2: v37854 (antibody, V domains shown)
# VH: B1 VH with Y101A
# VL: B1 VL
# notes: OAA format as v34891; also called huTN228 Y1110A (VH) OAA
# B3: v37845 (antibody, V domains shown)
# VH: B1 VH with Y32A
# VL: B1 VL
# notes: OAA format; also called huTN228 Y1037A (VH) OAA
# B4: v37843 (antibody, V domains shown)
# VH: B1 VH with T30A
# VL: B1 VL
# notes: OAA format as v34891; also called huTN228 T1035A (VH) OAA
# B5: v37841 (antibody, V domains shown)
# VH: B1 VH with S28A
# VL: B1 VL
# notes: OAA format as v34891; also called huTN228 S1029A (VH) OAA
# B6: v37847 (antibody, V domains shown)
# VH: B1 VH with P53A
# VL: B1 VL
# notes: OAA format; also called huTN228 P1058A (VH) OAA
# B7: v37868 (antibody, V domains shown)
# VH: B1 VH
# VL: B1 VL with Y32A
# notes: OAA format as v34891; also called huTN228 Y1034A (VL) OAA
# B8: v37858 (antibody, V domains shown)
# VH: B1 VH with L105A
# VL: B1 VL
# notes: OAA format as v34891; also called huTN228 L1112AA (VH) OAA
# B9: v37851 (antibody, V domains shown)
# VH: B1 VH with N58A
# VL: B1 VL
# notes: OAA format as v34891; also called huTN228 N1066A (VH) OAA
# B10: v37856 (antibody, V domains shown)
# VH: B1 VH with N103A
# VL: B1 VL
# notes: OAA format; also called huTN228 N1111AA (VH) OAA
# B11: v37844 (antibody, V domains shown)
# VH: B1 VH with S31A
# VL: B1 VL
# notes: OAA format as v34891; also called huTN228 S1036A (VH) OAA
# B12: v37869 (antibody, V domains shown)
# VH: B1 VH
# VL: B1 VL with V33A
# notes: OAA format as v34891; also called huTN228 V1035A (VL) OAA
# B13: v37855 (antibody, V domains shown)
# VH: B1 VH with G102A
# VL: B1 VL
# notes: OAA format as v34891; also called huTN228 G1111A (VH) OAA
# Target: huCD28 (human, UniProt P10747 19-152, limits assumed)
# Test: SPR, OAA format
Binder,Fold-change from WT,Kd,koff,kon
B1,1 fold,87.9 nM,0.00319 s⁻¹,36300 M⁻¹ s⁻¹
B2,0.9 fold,79 nM,0.0034 s⁻¹,43200 M⁻¹ s⁻¹
B3,2.81 fold,247 nM,0.0139 s⁻¹,56600 M⁻¹ s⁻¹
B4,0.73 fold,64 nM,0.00301 s⁻¹,47100 M⁻¹ s⁻¹
B5,0.72 fold,63.4 nM,0.00322 s⁻¹,51100 M⁻¹ s⁻¹
B6,1.39 fold,122 nM,0.00626 s⁻¹,51100 M⁻¹ s⁻¹
B7,5.37 fold,472 nM,0.0601 s⁻¹,126000 M⁻¹ s⁻¹
B8,3.91 fold,344 nM,0.0221 s⁻¹,64700 M⁻¹ s⁻¹
B9,4.69 fold,412 nM,0.037 s⁻¹,90900 M⁻¹ s⁻¹
B10,6.16 fold,542 nM,0.0254 s⁻¹,47100 M⁻¹ s⁻¹
B11,0.7 fold,61.6 nM,0.00313 s⁻¹,50800 M⁻¹ s⁻¹
B12,4.9 fold,431 nM,0.0277 s⁻¹,67700 M⁻¹ s⁻¹
B13,0.84 fold,73.7 nM,0.00342 s⁻¹,46400 M⁻¹ s⁻¹
